B1: Acetyl-CoA carboxylase carboxyltransferase subunit AccD (enzyme, E. coli, UniProt P0A9Q5 1-304, looked up)
chain: MSWIERIKSNITPTRKASIPEGVWTKCDSCGQVLYRAELERNLEVCPKCDHHMRMTARNRLHSLLDEGSLVELGSELEPKDVLKFRDSKKYKDRLASAQKETGEKDALVVMKGTLYGMPVVAAAFEFAFMGGSMGSVVGARFVRAVEQALEDNCPLICFSASGGARMQEALMSLMQMAKTSAALAKMQERGLPYISVLTDPTMGGVSASFAMLGDLNIAEPKALIGFAGPRVIEQTVREKLPPGFQRSEFLIEKGAIDMIVRRPEMRLKLASILAKLMNLPAPNPEAPREGVVVPPVPDQEPEA
B2: Acetyl-CoA carboxylase carboxyltransferase subunit AccA (enzyme)
chain: MSLNFLDFEQPIAELEAKIDSLTAVSRQDEKLDINIDEEVHRLREKSVELTRKIFADLGAWQIAQLARHPQRPYTLDYVRLAFDEFDELAGDRAYADDKAIVGGIARLDGRPVMIIGHQKGRETKEKIRRNFGMPAPEGYRKALRLMQMAERFKMPIITFIDTPGAYPGVGAEERGQSEAIARNLREMSRLGVPVVCTVIGEGGSGGALAIGVGDKVNMLQYSTYSVISPEGCASILWKSADKAPLAAEAMGIIAPRLKELKLIDSIIPEPLGGAHRNPEAMAASLKAQLLADLADLDVLSTEDLKNRRYQRLMSYGYA

What was measured:
Biotin carboxylase AccC = Biotin carboxylase AccC (E. coli, UniProt P24182 1-449); test: SEC
[1] = target: B2; test: cryo-EM structure

Row | Binder | stoichiometry N (Biotin carboxylase AccC) | binding result [1]
1 | B1 | ~1 | binds
2 | B2 | ~1 | 
